Assay results published in article PMC7898468, “TrkA-mediated endocytosis of p75-CTF prevents cholinergic neuron death upon γ-secretase inhibition” (Life Science Alliance, 2021).
Blank lines part the entries; values can stand above or below the molecule they belong to.

Key:
[1] = biological target: HA-p75-CTF (truncated p75NTR construct that mimics the endogenously generated C-terminal fragment), wild type (UniProt P07174); assay: non-reducing SDS-PAGE and Western blot; total membranes (and lysates) of HeLa cells transfected with p75-CTF constructs, 16 h with or without 10 uM compound E; sample buffer with 1% beta-mercaptoethanol keeps the C257 disulfide dimers; anti-p75NTR blot; shows only SDS-resistant disulfide dimers
[2] = biological target: endogenous p75-CTF of mouse dorsal root ganglia neurons (mouse (endogenous in dorsal root ganglia)); assay: non-reducing SDS-PAGE and Western blot; lysate of dorsal root ganglia from P2 mice, 24 h at 37 C with or without compound E (10 uM)
[3] = biological target: the molecule itself; assay: SDS-PAGE and Western blot with or without DTT; purified C101-p75-3xFLAG substrates, with or without DTT (20 mM), anti-FLAG blot

stoichiometry N [1]: 2
Molecule: HA-p75-CTF (truncated p75NTR construct that mimics the endogenously generated C-terminal fragment), wild type (from UniProt P07174 245-425) (domain or fragment)

stoichiometry N [2]: 2
Molecule: endogenous p75-CTF of mouse dorsal root ganglia neurons (domain or fragment)

B1: C101-p75-wt-3xFlag (domain or fragment, rat)
chain: MVTTVMGSSQPVVTRGTTDNLIPVYCSILAAVVVGLVAYIAFKRWNSCKQNKQGANSRPVNQTPPPEGEKLHSDSGISVDSQSLHDQQTHTQTASGQALKG
notes: rat p75NTR, transmembrane domain and juxtamembrane region; Forms DTT-sensitive disulfide dimers; also called p75-C101-wt; C101-wt; source: COS1, transiently transfected, purified (anti-FLAG M2 agarose); not shown: 3xFLAG, C-terminal, kept
stoichiometry N [3]: 2
